# Values joined by “and” are separate entries in the source; they are usually repeats but may differ in a detail not shown here. Identical values can stand only once.
# Assay: thermal shift assay of FEM1B constructs
# Assay type: physicochemical
# Conditions: average of three replicates
# Protocol: The substrate binding domain of FEM1B (residues 1–356, ~42 kDa molecular weight) was prepared for NMR‐based screening. However, this construct (FEM1B WT) was prone to aggregation and was not suitable for the NMR experiments. […] To reduce the potential for aggregation, we prepared several mutants of FEM1B constructs and evaluated their stability using a thermal shift assay (Table 1).
row,Molecule,Tm ± SD
1,"FEM1B‐7: FEM1B construct, mutations L4E, L18E, L25S, L281E, R321D (protein, UniProt Q9UK73 1-627, looked up, variant L4E L18E L25S L281E R321D) Protein fem-1 homolog B: MEGEAGYVYKAASEGKVETLAALLSNRSESDIRYLLGYVSQQGGQRSTPLIIAARNGHAKVVRLLLEHYRVQTQQTGTVRFDGYVIDGATALWCAAGAGHFEVVKLLVSHGANVNHTTVTNSTPLRAACFDGRLDIVKYLVENNANISIANKYDNTCLMIAAYKGHTDVVRYLLEQRADPNAKAHCGATALHFAAEAGHIDIVKELIKWRAAIVVNGHGMTPLKVAAESCKADVVELLLSHADCDRRSRIEALELLGASFANDRENYDIIKTYHYLYLAMEERFQDGDNILEKEVLPPIHAYGNRTECRNPQELESIRQDDDALHMEGLIVRERILGADNIDVSHPIIYRGAVYADNMEFEQCIKLWLHALHLRQKGNRNTHKDLLRFAQVFSQMIHLNETVKAPDIECVLRCSVLEIEQSMNRVKNISDADVHNAMDNYECNLYTFLYLVCISTKTQCSEEDQCKINKQIYNLIHLDPRTREGFTLLHLAVNSNTPVDDFHTNDVCSFPNALVTKLLLDCGAEVNAVDNEGNSALHIIVQYNRPISDFLTLHSIIISLVEAGAHTDMTNKQNKTPLDKSTTGVSEILLKTQMKMSLKCLAARAVRANDINYQDQIPRTLEEFVGFH",28.7 ± 1.4 °C
2,"FEM1B‐9: FEM1B construct, mutations L4E, A21E, L25S, L281E, R321D (protein, UniProt Q9UK73 1-627, looked up, variant L4E A21E L25S L281E R321D) Protein fem-1 homolog B: MEGEAGYVYKAASEGKVLTLEALLSNRSESDIRYLLGYVSQQGGQRSTPLIIAARNGHAKVVRLLLEHYRVQTQQTGTVRFDGYVIDGATALWCAAGAGHFEVVKLLVSHGANVNHTTVTNSTPLRAACFDGRLDIVKYLVENNANISIANKYDNTCLMIAAYKGHTDVVRYLLEQRADPNAKAHCGATALHFAAEAGHIDIVKELIKWRAAIVVNGHGMTPLKVAAESCKADVVELLLSHADCDRRSRIEALELLGASFANDRENYDIIKTYHYLYLAMEERFQDGDNILEKEVLPPIHAYGNRTECRNPQELESIRQDDDALHMEGLIVRERILGADNIDVSHPIIYRGAVYADNMEFEQCIKLWLHALHLRQKGNRNTHKDLLRFAQVFSQMIHLNETVKAPDIECVLRCSVLEIEQSMNRVKNISDADVHNAMDNYECNLYTFLYLVCISTKTQCSEEDQCKINKQIYNLIHLDPRTREGFTLLHLAVNSNTPVDDFHTNDVCSFPNALVTKLLLDCGAEVNAVDNEGNSALHIIVQYNRPISDFLTLHSIIISLVEAGAHTDMTNKQNKTPLDKSTTGVSEILLKTQMKMSLKCLAARAVRANDINYQDQIPRTLEEFVGFH",28.5 ± 1.3 °C
3,"FEM1B‐4: FEM1B construct, mutations L4E, L18E, L281E, R321D (protein, UniProt Q9UK73 1-627, looked up, variant L4E L18E L281E R321D) Protein fem-1 homolog B: MEGEAGYVYKAASEGKVETLAALLLNRSESDIRYLLGYVSQQGGQRSTPLIIAARNGHAKVVRLLLEHYRVQTQQTGTVRFDGYVIDGATALWCAAGAGHFEVVKLLVSHGANVNHTTVTNSTPLRAACFDGRLDIVKYLVENNANISIANKYDNTCLMIAAYKGHTDVVRYLLEQRADPNAKAHCGATALHFAAEAGHIDIVKELIKWRAAIVVNGHGMTPLKVAAESCKADVVELLLSHADCDRRSRIEALELLGASFANDRENYDIIKTYHYLYLAMEERFQDGDNILEKEVLPPIHAYGNRTECRNPQELESIRQDDDALHMEGLIVRERILGADNIDVSHPIIYRGAVYADNMEFEQCIKLWLHALHLRQKGNRNTHKDLLRFAQVFSQMIHLNETVKAPDIECVLRCSVLEIEQSMNRVKNISDADVHNAMDNYECNLYTFLYLVCISTKTQCSEEDQCKINKQIYNLIHLDPRTREGFTLLHLAVNSNTPVDDFHTNDVCSFPNALVTKLLLDCGAEVNAVDNEGNSALHIIVQYNRPISDFLTLHSIIISLVEAGAHTDMTNKQNKTPLDKSTTGVSEILLKTQMKMSLKCLAARAVRANDINYQDQIPRTLEEFVGFH",35.0 ± 0.5 °C
4,"FEM1B‐3: FEM1B construct, mutations L4E, L18E, L281E (protein, UniProt Q9UK73 1-627, looked up, variant L4E L18E L281E) Protein fem-1 homolog B: MEGEAGYVYKAASEGKVETLAALLLNRSESDIRYLLGYVSQQGGQRSTPLIIAARNGHAKVVRLLLEHYRVQTQQTGTVRFDGYVIDGATALWCAAGAGHFEVVKLLVSHGANVNHTTVTNSTPLRAACFDGRLDIVKYLVENNANISIANKYDNTCLMIAAYKGHTDVVRYLLEQRADPNAKAHCGATALHFAAEAGHIDIVKELIKWRAAIVVNGHGMTPLKVAAESCKADVVELLLSHADCDRRSRIEALELLGASFANDRENYDIIKTYHYLYLAMEERFQDGDNILEKEVLPPIHAYGNRTECRNPQELESIRQDRDALHMEGLIVRERILGADNIDVSHPIIYRGAVYADNMEFEQCIKLWLHALHLRQKGNRNTHKDLLRFAQVFSQMIHLNETVKAPDIECVLRCSVLEIEQSMNRVKNISDADVHNAMDNYECNLYTFLYLVCISTKTQCSEEDQCKINKQIYNLIHLDPRTREGFTLLHLAVNSNTPVDDFHTNDVCSFPNALVTKLLLDCGAEVNAVDNEGNSALHIIVQYNRPISDFLTLHSIIISLVEAGAHTDMTNKQNKTPLDKSTTGVSEILLKTQMKMSLKCLAARAVRANDINYQDQIPRTLEEFVGFH",35.0 ± 0.5 °C
5,"FEM1B‐10: FEM1B construct, mutations L4E, L18E, L24S, I270N, L281E (protein, UniProt Q9UK73 1-627, looked up, variant L4E L18E L24S I270N L281E) Protein fem-1 homolog B: MEGEAGYVYKAASEGKVETLAALSLNRSESDIRYLLGYVSQQGGQRSTPLIIAARNGHAKVVRLLLEHYRVQTQQTGTVRFDGYVIDGATALWCAAGAGHFEVVKLLVSHGANVNHTTVTNSTPLRAACFDGRLDIVKYLVENNANISIANKYDNTCLMIAAYKGHTDVVRYLLEQRADPNAKAHCGATALHFAAEAGHIDIVKELIKWRAAIVVNGHGMTPLKVAAESCKADVVELLLSHADCDRRSRIEALELLGASFANDRENYDINKTYHYLYLAMEERFQDGDNILEKEVLPPIHAYGNRTECRNPQELESIRQDRDALHMEGLIVRERILGADNIDVSHPIIYRGAVYADNMEFEQCIKLWLHALHLRQKGNRNTHKDLLRFAQVFSQMIHLNETVKAPDIECVLRCSVLEIEQSMNRVKNISDADVHNAMDNYECNLYTFLYLVCISTKTQCSEEDQCKINKQIYNLIHLDPRTREGFTLLHLAVNSNTPVDDFHTNDVCSFPNALVTKLLLDCGAEVNAVDNEGNSALHIIVQYNRPISDFLTLHSIIISLVEAGAHTDMTNKQNKTPLDKSTTGVSEILLKTQMKMSLKCLAARAVRANDINYQDQIPRTLEEFVGFH",36.3 ± 0.1 °C
6,"FEM1B‐8: FEM1B construct, mutations L4E, A21E, L25S, I270N, L281E (protein, UniProt Q9UK73 1-627, looked up, variant L4E A21E L25S I270N L281E) Protein fem-1 homolog B: MEGEAGYVYKAASEGKVLTLEALLSNRSESDIRYLLGYVSQQGGQRSTPLIIAARNGHAKVVRLLLEHYRVQTQQTGTVRFDGYVIDGATALWCAAGAGHFEVVKLLVSHGANVNHTTVTNSTPLRAACFDGRLDIVKYLVENNANISIANKYDNTCLMIAAYKGHTDVVRYLLEQRADPNAKAHCGATALHFAAEAGHIDIVKELIKWRAAIVVNGHGMTPLKVAAESCKADVVELLLSHADCDRRSRIEALELLGASFANDRENYDINKTYHYLYLAMEERFQDGDNILEKEVLPPIHAYGNRTECRNPQELESIRQDRDALHMEGLIVRERILGADNIDVSHPIIYRGAVYADNMEFEQCIKLWLHALHLRQKGNRNTHKDLLRFAQVFSQMIHLNETVKAPDIECVLRCSVLEIEQSMNRVKNISDADVHNAMDNYECNLYTFLYLVCISTKTQCSEEDQCKINKQIYNLIHLDPRTREGFTLLHLAVNSNTPVDDFHTNDVCSFPNALVTKLLLDCGAEVNAVDNEGNSALHIIVQYNRPISDFLTLHSIIISLVEAGAHTDMTNKQNKTPLDKSTTGVSEILLKTQMKMSLKCLAARAVRANDINYQDQIPRTLEEFVGFH",34.5 ± 0.2 °C
7,"FEM1B‐5: FEM1B construct, mutations L4E, A21E, L18E, L25S (protein, UniProt Q9UK73 1-627, looked up, variant L4E A21E L18E L25S) Protein fem-1 homolog B: MEGEAGYVYKAASEGKVETLEALLSNRSESDIRYLLGYVSQQGGQRSTPLIIAARNGHAKVVRLLLEHYRVQTQQTGTVRFDGYVIDGATALWCAAGAGHFEVVKLLVSHGANVNHTTVTNSTPLRAACFDGRLDIVKYLVENNANISIANKYDNTCLMIAAYKGHTDVVRYLLEQRADPNAKAHCGATALHFAAEAGHIDIVKELIKWRAAIVVNGHGMTPLKVAAESCKADVVELLLSHADCDRRSRIEALELLGASFANDRENYDIIKTYHYLYLAMLERFQDGDNILEKEVLPPIHAYGNRTECRNPQELESIRQDRDALHMEGLIVRERILGADNIDVSHPIIYRGAVYADNMEFEQCIKLWLHALHLRQKGNRNTHKDLLRFAQVFSQMIHLNETVKAPDIECVLRCSVLEIEQSMNRVKNISDADVHNAMDNYECNLYTFLYLVCISTKTQCSEEDQCKINKQIYNLIHLDPRTREGFTLLHLAVNSNTPVDDFHTNDVCSFPNALVTKLLLDCGAEVNAVDNEGNSALHIIVQYNRPISDFLTLHSIIISLVEAGAHTDMTNKQNKTPLDKSTTGVSEILLKTQMKMSLKCLAARAVRANDINYQDQIPRTLEEFVGFH",38.8 ± 0.3 °C
8,"FEM1B‐6: FEM1B construct, mutations Y84A, I270N, L281E, R321D (protein, UniProt Q9UK73 1-627, looked up, variant Y84A I270N L281E R321D) Protein fem-1 homolog B: MEGLAGYVYKAASEGKVLTLAALLLNRSESDIRYLLGYVSQQGGQRSTPLIIAARNGHAKVVRLLLEHYRVQTQQTGTVRFDGAVIDGATALWCAAGAGHFEVVKLLVSHGANVNHTTVTNSTPLRAACFDGRLDIVKYLVENNANISIANKYDNTCLMIAAYKGHTDVVRYLLEQRADPNAKAHCGATALHFAAEAGHIDIVKELIKWRAAIVVNGHGMTPLKVAAESCKADVVELLLSHADCDRRSRIEALELLGASFANDRENYDINKTYHYLYLAMEERFQDGDNILEKEVLPPIHAYGNRTECRNPQELESIRQDDDALHMEGLIVRERILGADNIDVSHPIIYRGAVYADNMEFEQCIKLWLHALHLRQKGNRNTHKDLLRFAQVFSQMIHLNETVKAPDIECVLRCSVLEIEQSMNRVKNISDADVHNAMDNYECNLYTFLYLVCISTKTQCSEEDQCKINKQIYNLIHLDPRTREGFTLLHLAVNSNTPVDDFHTNDVCSFPNALVTKLLLDCGAEVNAVDNEGNSALHIIVQYNRPISDFLTLHSIIISLVEAGAHTDMTNKQNKTPLDKSTTGVSEILLKTQMKMSLKCLAARAVRANDINYQDQIPRTLEEFVGFH",37.3 ± 0.04 °C
9,"FEM1B WT: substrate binding domain of FEM1B (residues 1–356), wild type (protein, UniProt Q9UK73 1-356, looked up, fragment, substrate binding domain) MEGLAGYVYKAASEGKVLTLAALLLNRSESDIRYLLGYVSQQGGQRSTPLIIAARNGHAKVVRLLLEHYRVQTQQTGTVRFDGYVIDGATALWCAAGAGHFEVVKLLVSHGANVNHTTVTNSTPLRAACFDGRLDIVKYLVENNANISIANKYDNTCLMIAAYKGHTDVVRYLLEQRADPNAKAHCGATALHFAAEAGHIDIVKELIKWRAAIVVNGHGMTPLKVAAESCKADVVELLLSHADCDRRSRIEALELLGASFANDRENYDIIKTYHYLYLAMLERFQDGDNILEKEVLPPIHAYGNRTECRNPQELESIRQDRDALHMEGLIVRERILGADNIDVSHPIIYRGAVYAD",35.6 °C and 35.6 ± 0.5 °C
